Molecular target: PtoMYB221 fused to Cub (split-ubiquitin bait) (Populus tomentosa)

decrease in LUC activity by 2.56 μg PtoMYB221 effector plasmid against the control without PtoMYB221, with 600 to 1200 ng PtoUBC34 (35.16% with 1200 ng; 72.66% when no exogenous PtoUBC34 was added): 54.8%
Substance: full-length PtoUBC34 fused to Nub (split-ubiquitin prey) (from UniProt A0A482P071 1-235) (enzyme)

— article PMC6416899
